PMC4115224, “Real-Time Interaction between TBP and the TATA Box of the Human Triosephosphate Isomerase Gene Promoter in the Norm and Pathology”

Assays:
[1] = target: T1, TATA-binding protein (TBP) (human, UniProt P20226 1-339); assay: stopped-flow FRET; kon (1.1 ± 0.1)e6 M-1 s-1; koff (2.8 ± 0.1)e-3 s-1; KA 3.7e8 M-1; 25 C; 25 C; 0.1 uM DNA duplex; TBP 0.1-2 uM (T allele) or 0.4-4 uM (G allele); buffer, salt and pH not given in the material; settings: protein: recombinant; label: Cy3/Cy5 FRET pair at the duplex ends
[2] = target: T1, TATA-binding protein (TBP); assay: stopped-flow FRET; kon (0.2 ± 0.1)e6 M-1 s-1; koff (8.9 ± 1.2)e-2 s-1; KA 2.3e6 M-1; 25 C; 25 C; 0.1 uM DNA duplex; TBP 0.1-2 uM (T allele) or 0.4-4 uM (G allele); buffer, salt and pH not given in the material; settings: protein: recombinant; label: Cy3/Cy5 FRET pair at the duplex ends

T1 sequence (P20226 whole entry): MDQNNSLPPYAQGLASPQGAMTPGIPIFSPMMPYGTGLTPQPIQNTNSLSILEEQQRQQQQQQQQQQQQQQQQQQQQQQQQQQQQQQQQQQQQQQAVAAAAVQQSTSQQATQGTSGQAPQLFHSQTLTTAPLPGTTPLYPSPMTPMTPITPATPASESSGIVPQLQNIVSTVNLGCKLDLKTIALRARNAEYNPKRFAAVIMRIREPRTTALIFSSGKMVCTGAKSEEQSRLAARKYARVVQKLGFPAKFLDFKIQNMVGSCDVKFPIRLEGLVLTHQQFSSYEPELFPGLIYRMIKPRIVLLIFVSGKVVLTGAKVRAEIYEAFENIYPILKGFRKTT

B1: TPI TATA box, wild type (T allele) (dsDNA)
DNA 1: GCTCTATATAAGTGG
DNA 2: CCACTTATATAGAGC
Kd [1]: 2.7 nM

B2: TPI TATA box, -24T>G SNP (G allele) (dsDNA)
DNA 1: GCTCTATAGAAGTGG
DNA 2: CCACTTCTATAGAGC
Kd [2]: 400 nM
